This note sets out measurements from patent US20240252628A1 (ACCELERON PHARMA, published 2024).

Where two headings read alike, the source gives them in different places.

The labels stand for the following.
T1: activin B (UniProt P09529 293-407)
T1 sequence (looked up): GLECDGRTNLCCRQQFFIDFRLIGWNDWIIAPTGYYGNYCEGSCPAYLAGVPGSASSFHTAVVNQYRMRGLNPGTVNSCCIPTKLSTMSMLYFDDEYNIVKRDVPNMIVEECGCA

T2: activin A (UniProt P08476 311-426)
T2 construct: The same holds for m2-m11
T2 sequence (looked up): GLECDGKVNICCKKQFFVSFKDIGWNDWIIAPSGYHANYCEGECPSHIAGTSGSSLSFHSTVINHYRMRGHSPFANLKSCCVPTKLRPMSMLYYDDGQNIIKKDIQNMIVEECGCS

T3: GDF8 (UniProt O14793 267-375)
T3 construct: also called myostatin
T3 sequence (looked up): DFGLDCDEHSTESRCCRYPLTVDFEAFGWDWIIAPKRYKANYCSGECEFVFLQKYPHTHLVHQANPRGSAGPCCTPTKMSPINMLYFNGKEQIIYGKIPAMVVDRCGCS

T4: activin C (UniProt P55103 237-352)
T4 sequence (looked up): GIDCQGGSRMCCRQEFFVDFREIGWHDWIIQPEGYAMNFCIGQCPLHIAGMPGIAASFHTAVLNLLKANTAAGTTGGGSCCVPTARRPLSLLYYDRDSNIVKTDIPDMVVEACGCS

T5: BMP9 (UniProt Q9UK05 320-429)
T5 construct: also called GDF2
T5 sequence (looked up): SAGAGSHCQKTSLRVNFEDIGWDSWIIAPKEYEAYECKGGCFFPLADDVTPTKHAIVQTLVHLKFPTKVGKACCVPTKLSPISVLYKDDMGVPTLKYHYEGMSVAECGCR

T6: BMP5 (UniProt P22003 317-454, limits assumed)
T6 sequence (looked up): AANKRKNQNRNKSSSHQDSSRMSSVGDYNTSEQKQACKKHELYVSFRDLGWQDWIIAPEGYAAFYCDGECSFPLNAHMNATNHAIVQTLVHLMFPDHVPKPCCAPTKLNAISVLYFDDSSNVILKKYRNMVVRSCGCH

T7: GDF3 (UniProt Q9NR23 251-364)
T7 sequence (looked up): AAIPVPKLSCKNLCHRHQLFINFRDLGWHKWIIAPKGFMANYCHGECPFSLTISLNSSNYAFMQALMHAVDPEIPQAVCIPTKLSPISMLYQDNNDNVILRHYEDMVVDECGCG

T8: BMP6 (UniProt P22004 382-513, limits assumed)
T8 sequence (looked up): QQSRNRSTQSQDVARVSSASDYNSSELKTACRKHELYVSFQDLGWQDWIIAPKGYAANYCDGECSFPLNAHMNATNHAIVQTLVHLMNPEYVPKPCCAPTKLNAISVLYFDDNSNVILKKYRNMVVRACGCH

T9: activin AC (UniProt P08476 311-426; P55103 237-352)
T9 sequence (looked up) 1: T2 sequence (looked up)
T9 sequence (looked up) 2: T4 sequence (looked up)

T10: GDF11 (UniProt O95390 299-407)
T10 construct: also called BMP11
T10 sequence (looked up): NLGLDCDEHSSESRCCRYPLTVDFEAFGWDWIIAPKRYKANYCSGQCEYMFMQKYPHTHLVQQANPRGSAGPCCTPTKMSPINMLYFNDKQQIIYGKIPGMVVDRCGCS

B1: ALK4-Fc homodimer (Fc fusion, not shown: a dimerising Fc or GST)
chain: SGPRGVQALLCACTSCLQANYTCETDGACMVSIFNLDGMEHHVRTCIPKVELVPAGKPFYCLSSEDLRNTHCCYTDYCNRIDLRVPSGHLKEPEHPSMWGPVE
B2: ActRIIB-Fc:ALK7-Fc heterodimer (Fc fusion)
chain 1: GRGEAETRECIYYNANWELERTNQSGLERCEGEQDKRLHCYASWRNSSGTIELVKKGCWLDDFNCYDRQECVATEENPQVYFCCCEGNFCNERFTHLPEAGGPEVTYEPPPTAPTGGGTHTCPPCPAPELLGGPSVFLFPPKPKDTLMISRTPEVTCVVVDVSHEDPEVKFNWYVDGVEVHNAKTKPREEQYNSTYRVVSVLTVLHQDWLNGKEYKCKVSNKALPAPIEKTISKAKGQPREPQVYTLPPSRKEMTKNQVSLTCLVKGFYPSDIAVEWESNGQPENNYKTTPPVLKSDGSFFLYSKLTVDKSRWQQGNVFSCSVMHEALHNHYTQKSLSLSPGK
chain 2: GLKCVCLLCDSSNFTCQTEGACWASVMLTNGKEQVIKSCVSLPELNAQVFCHSSNNVTKTECCFTDFCNNITLHLPTASPNAPKLGPMETGGGTHTCPPCPAPELLGGPSVFLFPPKPKDTLMISRTPEVTCVVVDVSHEDPEVKFNWYVDGVEVHNAKTKPREEQYNSTYRVVSVLTVLHQDWLNGKEYKCKVSNKALPAPIEKTISKAKGQPREPQVYTLPPSREEMTKNQVSLTCLVKGFYPSDIAVEWESNGQPENNYDTTPPVLDSDGSFFLYSDLTVDKSRWQQGNVFSCSVMHEALHNHYTQKSLSLSPG
notes: also called ActRIIB-Fc:ALK7 heterodimer; ActRIIB-Fc:ALK7-Fc heterodimeric complex
B3: BMP10 (ligand, UniProt O95393 317-424, looked up)
chain: NAKGNYCKRTPLYIDFKEIGWDSWIIAPPGYEAYECRGVCNYPLAEHLTPTKHAIIQALVHLKNSQKASKACCVPTKLEPISILYLDKGVVTYKFKYEGMAVSECGCR
B4: ALK7-Fc homodimer (Fc fusion, not shown: a dimerising Fc or GST)
chain: LSPGLKCVCLLCDSSNFTCQTEGACWASVMLTNGKEQVIKSCVSLPELNAQVFCHSSNNVTKTECCFTDFCNNITLHLPTASPNAPKLGPME
notes: the whole extracellular entry is named

For assay [1], the target named is T1, activin B. The experiment in a line: SPR (Biacore), anti-Fc capture of receptor. The protocol: (§1) A Biacore™-based binding assay was used to compare ligand binding selectivity of the ActRIIB-Fc:ALK4-Fc heterodimeric complex described above with that of ActRIIB-Fc and ALK4-Fc homodimer complexes. The ActRIIB-Fc:ALK4-Fc heterodimer, ActRIIB-Fc homodimer, and ALK4-Fc homodimer were independently captured onto the system using an anti-Fc antibody. Ligands were injected and allowed to flow over the captured receptor protein. Results are summarized in the table below, in which ligand off-rates (kd) most indicative of effective ligand traps are denoted in bold.
Background: SPR reads the build-up and loss of mass on a sensor chip optically.

The target of assay [2] is T2, activin A. Put plainly: SPR (Biacore), anti-Fc capture of receptor. As to the method: as §1
The next assay concerns the target T3, GDF8. Put plainly: SPR (Biacore), anti-Fc capture of receptor. As to the method: (§2) A Biacore™-based binding assay was used to compare ligand binding selectivity of the ActRIIB-Fc:ALK7-Fc heterodimeric complex described above with that of ActRIIB-Fc and ALK7-Fc homodimeric complexes. The ActRIIB-Fc:ALK7-Fc heterodimer, ActRIIB-Fc homodimer, and ALK7-Fc homodimer were independently captured onto the system using an anti-Fc antibody. Ligands were injected and allowed to flow over the captured receptor protein. Results are summarized in the table below, in which ligand off-rates (kd) most indicative of effective ligand traps are denoted by in bold.

A further assay concerns the target T4, activin C. Put plainly: SPR (Biacore), anti-Fc capture of receptor. The protocol:
as §2

For another assay, the target named is T5, BMP9. The experiment in a line: SPR (Biacore), anti-Fc capture of receptor. As to the method:
as §2

The next assay concerns the target T6, BMP5. Put plainly: SPR (Biacore), anti-Fc capture of receptor. As to the method:
as §2

The target in the assay “BMP10” is B3. The experiment in a line: SPR (Biacore), anti-Fc capture of receptor. The protocol:
as §2

The target of another assay is T7, GDF3. Put plainly: SPR (Biacore), anti-Fc capture of receptor. The protocol: as §2
Assay [3] deals with T1, activin B. The experiment in a line: SPR (Biacore), anti-Fc capture of receptor. As to the method:
as §2
The source holds these as a separate data set.

The target in a further assay is T8, BMP6. Put plainly: SPR (Biacore), anti-Fc capture of receptor. The protocol:
as §2

Assay [4] addresses T2, activin A. The experiment in a line: SPR (Biacore), anti-Fc capture of receptor. As to the method:
as §2
The source holds these as a separate data set.

For the next assay, the target named is T9, activin AC. Put plainly: SPR (Biacore), anti-Fc capture of receptor. The protocol:
as §2

The target of the next assay is T10, GDF11. The experiment in a line: SPR (Biacore), anti-Fc capture of receptor. As to the method:
as §2

In a further assay the target is T11, ActRIIA-mFc (human, UniProt P27037 21-135).
T11 construct: not shown: minimal linker and mouse Fc domain
T11 sequence (P27037 21-135): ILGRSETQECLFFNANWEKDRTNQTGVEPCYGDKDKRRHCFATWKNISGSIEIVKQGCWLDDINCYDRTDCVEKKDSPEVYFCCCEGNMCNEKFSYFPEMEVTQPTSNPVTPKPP
Put plainly: similar binding assay (SPR). As to the method:
GDF11 or activin A were immobilized on a Biacore™ CM5 chip using standard amine-coupling procedure. ActRIIA-hFc and ActRIIA-mFc proteins were loaded onto the system, and binding was measured. […] See FIG. 15A-B. Using a similar binding assay, ActRIIA-hFc was determined to have high to moderate affinity for other TGF-beta superfamily ligands including, for example, activin B, GDF8, BMP6, and BMP10. ActRIIA-mFc behaved similarly.

Take B1: in the assay with activin B [1], the binding result is on record as “no binding”. Further, in the assay with activin A [2], the Kd amounted to 20000 pM, the koff was determined as 0.012 s⁻¹ and the kon was 580000 M⁻¹ s⁻¹.

With B2, the Kd is 270 pM with GDF8; 6900 pM with activin C; > 1400 pM with BMP9; 57000 pM in the assay with BMP5; 190 pM with BMP10; 4500 pM with GDF3. In addition, the Kd was 17 pM with activin B [3]; 5300 pM in the assay with BMP6; 43 pM in the assay with activin A [4]; 220 pM with activin AC; 8 pM with GDF11. Further, the koff with GDF8 came to 0.001 s⁻¹; in the assay with activin C, 0.0024 s⁻¹; with BMP5, 0.0085 s⁻¹; with BMP10, 0.0028 s⁻¹; with GDF3, 0.01 s⁻¹; with activin B [3] it was 0.0002 s⁻¹. In addition, the koff stood at 0.0063 s⁻¹ in the assay with BMP6, 0.0019 s⁻¹ in the assay with activin A [4], 0.00057 s⁻¹ with activin AC and 0.00075 s⁻¹ in the assay with GDF11. For the same molecule, the on-rate (kon) was 3.7e+06 M⁻¹ s⁻¹ with GDF8; 350000 M⁻¹ s⁻¹ with activin C; 150000 M⁻¹ s⁻¹ with BMP5; 1.5e+07 M⁻¹ s⁻¹ with BMP10; 2.3e+06 M⁻¹ s⁻¹ with GDF3; 1.2e+07 M⁻¹ s⁻¹ with activin B [3]. For the same molecule, the kon with BMP6 is 1.2e+06 M⁻¹ s⁻¹; in the assay with activin A [4], 4.4e+07 M⁻¹ s⁻¹; with activin AC it was 2.6e+06 M⁻¹ s⁻¹; in the assay with GDF11 it was 9.5e+07 M⁻¹ s⁻¹.

For B3, in the assay with ActRIIA-mFc, the binding result was “binds”.

As to B4, the binding result with GDF8, in the assay with activin C, with BMP9, with BMP5, with BMP10 and in the assay with GDF3 was “no binding” each time. The binding result with activin B [3], with BMP6, with activin A [4], in the assay with activin AC and with GDF11 was “no binding” in each case.

For orientation: Kd means the concentration at which binding is half-saturated. A higher Kd goes with lower affinity. In general, koff refers to a measure of how fast the partners let go of each other. Read a low koff as a long-lived complex. The term kon denotes the second-order rate constant of association. Low values mean slow association, high ones fast association.
